Results on 8 molecules are retold here after patent KR20130140557A (dated 2013).

In one test the target is Fc. Nature of the test: mono phage ELISA, Fc coated 100 ng/well, anti-M13-HRP.
A further test deals with a-Myc. The experiment in a line: mono phage ELISA, a-Myc coated 100 ng/well, anti-M13-HRP. Background: In an ELISA, binding on a coated surface is turned into a signal by an enzyme label.
Test [1] concerns the target T1, IL-6R-Fc 항원 (IL-6R full domain 단백질) (human, UniProt P08887 20-365).
T1 construct: domain: IL-6R full domain; Expressed transiently in HEK293E and purified from the supernatant; also called IL-6R 항원; not shown: Fc part from expression vector pYK 604
T1 sequence (looked up): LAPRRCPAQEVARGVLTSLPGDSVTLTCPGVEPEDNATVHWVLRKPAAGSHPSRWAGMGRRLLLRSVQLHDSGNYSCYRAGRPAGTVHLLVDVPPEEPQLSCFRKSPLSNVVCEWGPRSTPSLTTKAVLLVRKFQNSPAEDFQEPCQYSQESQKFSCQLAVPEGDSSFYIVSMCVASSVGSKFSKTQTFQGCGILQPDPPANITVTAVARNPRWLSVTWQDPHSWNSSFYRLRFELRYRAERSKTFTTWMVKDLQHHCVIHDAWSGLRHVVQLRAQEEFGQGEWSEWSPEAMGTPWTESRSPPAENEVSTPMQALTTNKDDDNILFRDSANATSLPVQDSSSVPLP
The experiment in a line: mono phage ELISA, antigen coated 100 ng/well, anti-M13-HRP.

Test [2] addresses T1, IL-6R-Fc 항원 (IL-6R full domain 단백질). The experiment in a line: mono phage ELISA, ratio of OD on IL-6R full to OD on a-myc.
The target is the same in test [3]. The experiment in a line: ELISA (summary table; same value as the 3rd table).
Test [4] has the same target. Nature of the test: ELISA titration on coated IL-6R, anti-Fab-HRP.
The target is the same in test [5]. Nature of the test: ELISA, coated IL-6R 100 ng/well, anti-Fab-HRP.

B1: 모노 파아지 클론 A7 (scFv on phage) (scFv)
chain: DVHSQMQLVESGGGLVQPGTSLRLSCAASGFKFEDYAMHWVRQAPGKGLEWVSGVSWNSGTIAYVDSVKGRFTISRDNAKNSLYLQMNSLRAEDTAVYYCARDFTYFYESSGYYAFDLWGQGTMVTVSSDVHSQLVLTQPPSVSGAPGQRVTISCTGTNSNIGAGYDVHWYQQVPGTTPKLLIYGNTNRPSGVPDRFSGSKSGTSASLAITGLQAEDGGDYYCQSFDSSLTGSVFGTGTKVTVL
For B1, in the test with Fc, the OD 490 nm (Fc) was 0.0421 OD490. Also, the OD 490 nm (a-myc) in the test with a-Myc was determined as 0.0797 OD490. Moreover, the “OD 490 nm (IL-6R full)” value in test [1] was found to be 2.48 OD490. The “Ratio (IL-6R full / a-myc)” value in test [2] stood at 31.1.

B2: 모노 파아지 클론 D2 (scFv on phage) (scFv)
chain: DVHSQVQLVESGAEVKKPGSSVKVSCKGSGDTFPNYAINWVRQAPGQGPEWMGRIIPMLGTSDYAEKFQGRVTITADKSTNTAYMGLNSLRSEDTAVYYCVKGPRYYGTDSYYLEKWGQGTMVTVSSDVHSQLVLTQPPSVSGAPGQTVTISCTGPTIGAGYDVHWYQQLPGAAPKLLIYGNLNRPSGVPDRFSGSKSGTSASLAITDLQAEDEADYYCHTYDSSLSGSWVFGGGTKLTVL
In the test with Fc, B2 gave an OD 490 nm (Fc) of 0.0415 OD490. Also, the OD 490 nm (a-myc) in the test with a-Myc stood at 0.303 OD490. Besides, the “OD 490 nm (IL-6R full)” value in test [1] is 2.34 OD490. In test [2], the “Ratio (IL-6R full / a-myc)” value is 7.71.

B3: 모노 파아지 클론 B10 (scFv on phage) (scFv)
chain: DVHSQVQLVESGGGLVQPGGSLRLSCAASGFIFDDYAMFWVRQVPGKGLEWVAGINWNGNGIGYGDSVRGRFIISRDNARNSLDLQMNSLRAEDTAVYYCARPSLYGGNSEFDLWGQGTLVTVSSDVHSQLVLTQPPSVSGAPGQTVTISCTGPTIGAGYDVHWYQQLPGAAPKLLIYGNLNRPSGVPDRFSGSKSGTSASLAITDLQAEDEADYYCHTYDSSLSGSWVFGGGTKLTVL
Consider B3, for which, in the test with Fc, the OD 490 nm (Fc) stood at 0.0406 OD490. The OD 490 nm (a-myc) with a-Myc is 0.113 OD490. The “OD 490 nm (IL-6R full)” value in test [1] is 2.1 OD490. Also, the “Ratio (IL-6R full / a-myc)” value in test [2] stood at 18.6.

B4: 항 IL-6R 단클론 항체 A7 (IgG) (antibody, V domains shown)
VH: QMQLVESGGGLVQPGTSLRLSCAASGFKFEDYAMHWVRQAPGKGLEWVSGVSWNSGTIAYVDSVKGRFTISRDNAKNSLYLQMNSLRAEDTAVYYCARDFTYFYESSGYYAFDLWGQGTMVTVSS
VL: SQLVLTQPPSVSGAPGQRVTISCTGTNSNIGAGYDVHWYQQVPGTTPKLLIYGNTNRPSGVPDRFSGSKSGTSASLAITGLQAEDGGDYYCQSFDSSLTGSVFGTGTKVTVL
notes: Phage clone converted to whole IgG
As for B4, in test [3], the Kd turned out to be 2.3 nM. The same molecule had a Kd in test [4] of 2.3 nM. In test [5], the “OD 490 nm at 0.02441 nM antibody” value was 0.514 OD490, the “OD 490 nm at 0.04883 nM antibody” value was 0.498 OD490, the “OD 490 nm at 0.09766 nM antibody” value was determined as 0.497 OD490 and the “OD 490 nm at 0.19531 nM antibody” value came to 0.546 OD490. Also, in test [5], the “OD 490 nm at 0.39063 nM antibody” value was determined as 0.618 OD490, the “OD 490 nm at 0.78125 nM antibody” value worked out at 0.782 OD490, the “OD 490 nm at 1.5625 nM antibody” value is 1.17 OD490 and the “OD 490 nm at 3.125 nM antibody” value was determined as 1.64 OD490. Besides, in test [5], the “OD 490 nm at 6.25 nM antibody” value amounted to 2.13 OD490, the “OD 490 nm at 12.5 nM antibody” value worked out at 2.58 OD490, the “OD 490 nm at 25 nM antibody” value amounted to 2.84 OD490 and the “OD 490 nm at 50 nM antibody” value was found to be 3.1 OD490.

B5: 항 IL-6R 단클론 항체 F2 (IgG) (antibody, V domains shown)
VH: QVQLVESGAEVKKPGASVKVSCKASGYTFTNYYMHWVRQAPGQGLEWMGIINPSGGNTGYAQKFQGRVTMTRDMSTSTAYMELSSLRSEDTAVYYCARGLPWGENGLDVWGQGTTVTVSS
VL: SQLVLTQPSSVSGAPGQTVTISCTGSSSNIGAGYDVHWYQQLPGTAPKVLIYGDSDRPSGVPDRFSGSKSATSASLAITGLQAEDEADYYCQSYDSSLSAYVFGTGTKVTVL
notes: as for B4
In test [3], B5 yielded a dissociation constant Kd of 0.35 nM. The same molecule had a Kd in test [4] of 0.35 nM. Further, in test [5], the “OD 490 nm at 0.02441 nM antibody” value was determined as 0.535 OD490, the “OD 490 nm at 0.04883 nM antibody” value is 0.584 OD490, the “OD 490 nm at 0.09766 nM antibody” value worked out at 0.743 OD490 and the “OD 490 nm at 0.19531 nM antibody” value was 1.01 OD490. Also, in test [5], the “OD 490 nm at 0.39063 nM antibody” value came out at 1.41 OD490, the “OD 490 nm at 0.78125 nM antibody” value was 1.9 OD490, the “OD 490 nm at 1.5625 nM antibody” value stood at 2.43 OD490 and the “OD 490 nm at 3.125 nM antibody” value worked out at 2.72 OD490. For the same molecule, in test [5], the “OD 490 nm at 6.25 nM antibody” value came out at 2.71 OD490, the “OD 490 nm at 12.5 nM antibody” value was found to be 2.92 OD490, the “OD 490 nm at 25 nM antibody” value worked out at 2.89 OD490 and the “OD 490 nm at 50 nM antibody” value came out at 2.99 OD490.

B6: 모노 파아지 클론 F2 (scFv on phage) (scFv)
chain: DVHSQVQLVESGAEVKKPGASVKVSCKASGYTFTNYYMHWVRQAPGQGLEWMGIINPSGGNTGYAQKFQGRVTMTRDMSTSTAYMELSSLRSEDTAVYYCARGLPWGENGLDVWGQGTTVTVSSDVHSQLVLTQPSSVSGAPGQTVTISCTGSSSNIGAGYDVHWYQQLPGTAPKVLIYGDSDRPSGVPDRFSGSKSATSASLAITGLQAEDEADYYCQSYDSSLSAYVFGTGTKVTVL
Consider B6, for which the OD 490 nm (Fc) with Fc worked out at 0.0405 OD490. Also, in the test with a-Myc, the OD 490 nm (a-myc) was found to be 0.287 OD490. Further, in test [1], the “OD 490 nm (IL-6R full)” value was found to be 2.86 OD490. Moreover, the “Ratio (IL-6R full / a-myc)” value in test [2] worked out at 9.96.

B7: 항 IL-6R 단클론 항체 B10 (IgG) (antibody, V domains shown)
VH: QVQLVESGGGLVQPGGSLRLSCAASGFIFDDYAMFWVRQVPGKGLEWVAGINWNGNGIGYGDSVRGRFIISRDNARNSLDLQMNSLRAEDTAVYYCARPSLYGGNSEFDLWGQGTLVTVSS
VL: SQLVLTQPPSVSGAPGQTVTISCTGPTIGAGYDVHWYQQLPGAAPKLLIYGNLNRPSGVPDRFSGSKSGTSASLAITDLQAEDEADYYCHTYDSSLSGSWVFGGGTKLTVL
notes: as for B4
On to B7, for which the affinity in test [3], expressed as Kd, was 4.3 nM. In test [4], this molecule had a Kd of 4.3 nM. Further, in test [5], the “OD 490 nm at 0.02441 nM antibody” value was determined as 0.468 OD490, the “OD 490 nm at 0.04883 nM antibody” value was 0.451 OD490, the “OD 490 nm at 0.09766 nM antibody” value came to 0.462 OD490 and the “OD 490 nm at 0.19531 nM antibody” value amounted to 0.429 OD490. Moreover, in test [5], the “OD 490 nm at 0.39063 nM antibody” value turned out to be 0.476 OD490, the “OD 490 nm at 0.78125 nM antibody” value came to 0.5 OD490, the “OD 490 nm at 1.5625 nM antibody” value turned out to be 0.607 OD490 and the “OD 490 nm at 3.125 nM antibody” value was 0.761 OD490. In test [5], the “OD 490 nm at 6.25 nM antibody” value came to 1.04 OD490, the “OD 490 nm at 12.5 nM antibody” value is 1.39 OD490, the “OD 490 nm at 25 nM antibody” value was 1.78 OD490 and the “OD 490 nm at 50 nM antibody” value was determined as 2.09 OD490.

B8: 항 IL-6R 단클론 항체 D2 (IgG) (antibody, V domains shown)
VH: QVQLVESGAEVKKPGSSVKVSCKGSGDTFPNYAINWVRQAPGQGPEWMGRIIPMLGTSDYAEKFQGRVTITADKSTNTAYMGLNSLRSEDTAVYYCVKGPRYYGTDSYYLEKWGQGTMVTVSS
VL: B7 VL
notes: as for B4
Consider B8, for which, in test [3], the Kd was 7.5 nM. In test [4], this molecule displayed a dissociation constant (Kd) of 7.5 nM. Moreover, in test [5], the “OD 490 nm at 0.02441 nM antibody” value was 0.449 OD490, the “OD 490 nm at 0.04883 nM antibody” value was determined as 0.451 OD490, the “OD 490 nm at 0.09766 nM antibody” value came to 0.45 OD490 and the “OD 490 nm at 0.19531 nM antibody” value came out at 0.469 OD490. In addition, in test [5], the “OD 490 nm at 0.39063 nM antibody” value worked out at 0.473 OD490, the “OD 490 nm at 0.78125 nM antibody” value amounted to 0.479 OD490, the “OD 490 nm at 1.5625 nM antibody” value is 0.584 OD490 and the “OD 490 nm at 3.125 nM antibody” value was found to be 0.719 OD490. In test [5], the “OD 490 nm at 6.25 nM antibody” value is 0.981 OD490, the “OD 490 nm at 12.5 nM antibody” value was 1.47 OD490, the “OD 490 nm at 25 nM antibody” value was determined as 1.94 OD490 and the “OD 490 nm at 50 nM antibody” value is 2.38 OD490.

A word on the Kd: it is the equilibrium constant for the complex coming apart. Higher therefore signals weaker binding.
